Values joined by “and” are separate entries in the source; they are usually repeats but may differ in a detail not shown here. Identical values can stand only once.
Tests used:
[1] = target: human angiopoietin-1 (human) (UniProt Q15389); test: HTRF; competition with huTie-2-Fc-APC for biotinylated hAng1
[2] = target: human angiopoietin-2 (human) (UniProt O15123); test: HTRF; competition with huTie-2-Fc-APC for biotinylated hAng2
mouse Tie2 (mouse) = mouse Tie2 (mouse) (UniProt Q02858); test: cell-based or functional assay
Sequence of mouse Tie2 (mouse) (Q02858 23-1122): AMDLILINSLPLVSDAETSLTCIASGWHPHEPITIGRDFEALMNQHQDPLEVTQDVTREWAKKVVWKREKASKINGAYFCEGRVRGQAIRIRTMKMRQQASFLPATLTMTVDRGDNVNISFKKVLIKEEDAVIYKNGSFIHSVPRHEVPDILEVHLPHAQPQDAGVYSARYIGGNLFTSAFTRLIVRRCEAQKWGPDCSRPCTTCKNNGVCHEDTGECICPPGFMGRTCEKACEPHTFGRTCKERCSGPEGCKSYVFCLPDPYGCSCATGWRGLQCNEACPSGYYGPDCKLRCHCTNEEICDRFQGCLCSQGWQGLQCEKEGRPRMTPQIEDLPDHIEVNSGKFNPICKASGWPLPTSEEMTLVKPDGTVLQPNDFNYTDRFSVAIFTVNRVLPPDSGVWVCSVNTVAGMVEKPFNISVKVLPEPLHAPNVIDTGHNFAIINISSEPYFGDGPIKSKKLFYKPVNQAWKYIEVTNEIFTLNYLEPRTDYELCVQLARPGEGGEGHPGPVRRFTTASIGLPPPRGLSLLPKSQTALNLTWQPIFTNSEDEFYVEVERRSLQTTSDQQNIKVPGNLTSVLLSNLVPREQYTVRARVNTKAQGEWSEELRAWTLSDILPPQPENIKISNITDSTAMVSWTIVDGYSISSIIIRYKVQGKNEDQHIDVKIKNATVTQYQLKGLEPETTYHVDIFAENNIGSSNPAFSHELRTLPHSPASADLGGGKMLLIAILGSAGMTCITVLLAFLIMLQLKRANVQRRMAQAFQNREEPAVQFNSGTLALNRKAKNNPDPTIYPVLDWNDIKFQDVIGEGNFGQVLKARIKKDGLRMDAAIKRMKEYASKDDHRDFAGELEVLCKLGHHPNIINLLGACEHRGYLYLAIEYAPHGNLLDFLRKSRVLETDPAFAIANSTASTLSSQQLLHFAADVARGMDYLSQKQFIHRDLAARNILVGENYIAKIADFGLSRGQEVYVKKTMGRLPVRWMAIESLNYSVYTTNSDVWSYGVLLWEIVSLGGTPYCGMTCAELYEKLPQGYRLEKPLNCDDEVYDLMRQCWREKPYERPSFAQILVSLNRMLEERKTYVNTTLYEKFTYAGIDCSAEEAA

Sequence of human angiopoietin-2 (human) (O15123 19-496 limits assumed): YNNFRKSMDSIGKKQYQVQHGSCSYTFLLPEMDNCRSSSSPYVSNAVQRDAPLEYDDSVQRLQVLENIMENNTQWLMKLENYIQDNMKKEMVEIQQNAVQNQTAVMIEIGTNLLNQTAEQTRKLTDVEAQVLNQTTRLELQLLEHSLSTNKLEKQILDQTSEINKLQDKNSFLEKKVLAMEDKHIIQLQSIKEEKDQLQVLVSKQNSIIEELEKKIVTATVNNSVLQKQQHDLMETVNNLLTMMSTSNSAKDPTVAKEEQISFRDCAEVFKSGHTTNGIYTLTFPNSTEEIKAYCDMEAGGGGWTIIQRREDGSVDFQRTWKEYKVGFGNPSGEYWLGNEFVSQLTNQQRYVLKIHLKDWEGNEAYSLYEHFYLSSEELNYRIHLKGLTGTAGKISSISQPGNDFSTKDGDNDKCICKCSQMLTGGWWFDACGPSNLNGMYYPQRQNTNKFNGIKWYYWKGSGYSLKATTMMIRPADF
Sequence of human angiopoietin-1 (human) (Q15389 20-498 limits assumed): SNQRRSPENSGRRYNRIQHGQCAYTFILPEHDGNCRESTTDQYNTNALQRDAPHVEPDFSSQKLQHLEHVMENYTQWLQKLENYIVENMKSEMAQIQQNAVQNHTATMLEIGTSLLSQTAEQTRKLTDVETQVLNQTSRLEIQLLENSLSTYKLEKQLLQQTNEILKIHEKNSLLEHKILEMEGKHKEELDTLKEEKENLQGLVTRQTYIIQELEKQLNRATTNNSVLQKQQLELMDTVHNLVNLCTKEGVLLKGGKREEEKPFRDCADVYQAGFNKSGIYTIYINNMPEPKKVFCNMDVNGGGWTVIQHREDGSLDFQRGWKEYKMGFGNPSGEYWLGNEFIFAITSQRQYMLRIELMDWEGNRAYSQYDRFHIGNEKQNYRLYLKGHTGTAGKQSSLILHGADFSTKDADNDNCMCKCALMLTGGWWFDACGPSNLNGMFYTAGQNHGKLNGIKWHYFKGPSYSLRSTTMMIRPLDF

Row | IC90/IC50 [1] | IC90/IC50 [2] | Tie2 phosphorylation in mouse lung endothelium (immunoprecipitation-Western blot) (mouse Tie2 (mouse)) | Substance
1 | 41 and 71 | 4.1 and 4.4 | – | AMG 386 (Fc fusion)
2 | – | – | 5 fold | recombinant Ang1 (R&D Systems Inc.) (ligand)

— US20170081398A1
